Paper PMC2172279

Key:
Assay in all cases: co-sedimentation
[1] = target: dFull heavy chain (expressed full-length murine myosin V) (murine)
[2] = target: MD2IQ heavy chain (murine myosin V motor domain and the first two IQ motifs) (murine) (UniProt Q99104)
[3] = target: dHMM heavy chain (dilute heavy meromyosin: six IQ motifs followed by a coiled-coil tail) (murine) (UniProt Q99104)

mol CaM dissociated per mol HC in calcium (mol CaM per mol HC) [1]: 1.7
mol CaM dissociated per mol HC in calcium (mol CaM per mol HC) [2]: 0.5
mol CaM dissociated per mol HC in calcium (mol CaM per mol HC) [3]: 1.5
Substance: wild-type calmodulin (WT-CaM) (from UniProt P0DP33 1-149) (natural protein)
